For the assay, the target named is Nb6E (alpaca). As to the kind of experiment: in-gel fluorescence of the crosslinked product.

No end group written: not given here. FAM = fluorescein

For orientation: Kd means the free concentration of one partner at which half of the binding sites on the other are occupied at equilibrium, for simple one-to-one binding. The low end stands for higher affinity, the high end for lower affinity.

B1: FAM-1(NO2) (peptide)
chain: {FAM}-QADQCAAELARQIS
modifications: not fully specified (residue 5)
B1: the affinity, expressed as Kd, was 0.206 µM.
